US20050227296A1, “Method for indentifying integrin antagonists” (The General Hospital Corporation, a Massachusetts …, priority 1988, published 2005)

Assays:
[1] = target: CD11b/CD18 on human neutrophils (human) (UniProt P05107); experiment: time course of biotinylated NIF binding to neutrophils at 4 C, FACS
[2] = target: CD11b/CD18 on human neutrophils (human) (UniProt P05107); experiment: dissociation of biotinylated rNIF from washed neutrophils at 4 C, FACS
[3] = target: recombinant CD11b A domain (human) (UniProt P11215); experiment: Scatchard analysis of biotinylated rNIF binding to immobilized rA-domain
[4] = target: CD11b/CD18 on human neutrophils (human) (UniProt P05107); experiment: biotinylated rNIF on f-met-leu-phe activated against resting neutrophils, FACS
[5] = target: recombinant human CD11b/CD18 expressed in COS cells (human) (UniProt P05107); experiment: rNIF against EAiC3b binding to recombinant CD11b/CD18 on COS cells, fluorescence
[6] = target: CD11b/CD18 on human neutrophils (human) (UniProt P05107); experiment: Scatchard plot, biotinylated rNIF on resting or activated neutrophils at 4 C, FACS
[7] = target: complement iC3b on erythrocytes (EAiC3b) (human) (UniProt P01024); experiment: fluid-phase rA-domain against EAiC3b binding to immobilized rA-domain
complement iC3b on erythrocytes (EAiC3b) (human), sequence (P01024 23-667 limits assumed, chain 1 of 3): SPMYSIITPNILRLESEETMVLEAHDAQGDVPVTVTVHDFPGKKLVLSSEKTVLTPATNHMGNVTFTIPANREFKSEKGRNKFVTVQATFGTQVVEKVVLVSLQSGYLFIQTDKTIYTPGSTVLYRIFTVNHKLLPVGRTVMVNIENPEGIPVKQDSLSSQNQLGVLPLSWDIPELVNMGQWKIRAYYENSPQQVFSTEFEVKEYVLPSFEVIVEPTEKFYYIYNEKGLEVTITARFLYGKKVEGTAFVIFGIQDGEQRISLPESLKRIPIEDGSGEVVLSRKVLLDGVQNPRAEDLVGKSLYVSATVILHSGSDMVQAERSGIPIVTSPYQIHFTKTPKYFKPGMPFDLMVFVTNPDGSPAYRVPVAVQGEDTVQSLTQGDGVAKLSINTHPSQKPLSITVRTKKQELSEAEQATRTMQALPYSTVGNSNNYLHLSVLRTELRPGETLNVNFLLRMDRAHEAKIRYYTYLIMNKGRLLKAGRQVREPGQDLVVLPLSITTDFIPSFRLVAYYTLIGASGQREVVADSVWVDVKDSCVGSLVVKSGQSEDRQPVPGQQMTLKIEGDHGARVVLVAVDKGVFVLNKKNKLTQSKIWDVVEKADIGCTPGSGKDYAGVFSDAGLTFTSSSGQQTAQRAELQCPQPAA
complement iC3b on erythrocytes (EAiC3b) (human), sequence (P01024 749-1303 limits assumed, chain 2 of 3): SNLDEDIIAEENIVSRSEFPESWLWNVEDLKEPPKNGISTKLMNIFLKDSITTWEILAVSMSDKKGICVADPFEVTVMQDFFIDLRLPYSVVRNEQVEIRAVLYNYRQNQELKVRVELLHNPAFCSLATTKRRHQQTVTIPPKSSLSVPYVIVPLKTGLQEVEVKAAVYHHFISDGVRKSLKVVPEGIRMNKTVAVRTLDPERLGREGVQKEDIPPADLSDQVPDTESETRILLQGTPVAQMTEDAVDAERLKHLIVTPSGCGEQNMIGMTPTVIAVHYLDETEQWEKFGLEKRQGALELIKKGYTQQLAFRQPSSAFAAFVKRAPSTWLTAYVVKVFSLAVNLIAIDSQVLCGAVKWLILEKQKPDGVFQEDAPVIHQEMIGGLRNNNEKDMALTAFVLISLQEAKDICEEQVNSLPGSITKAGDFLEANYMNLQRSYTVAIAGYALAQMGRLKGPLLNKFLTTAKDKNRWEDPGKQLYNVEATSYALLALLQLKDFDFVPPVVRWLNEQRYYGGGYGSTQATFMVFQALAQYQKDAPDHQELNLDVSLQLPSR
complement iC3b on erythrocytes (EAiC3b) (human), sequence (P01024 1321-1663 limits assumed, chain 3 of 3): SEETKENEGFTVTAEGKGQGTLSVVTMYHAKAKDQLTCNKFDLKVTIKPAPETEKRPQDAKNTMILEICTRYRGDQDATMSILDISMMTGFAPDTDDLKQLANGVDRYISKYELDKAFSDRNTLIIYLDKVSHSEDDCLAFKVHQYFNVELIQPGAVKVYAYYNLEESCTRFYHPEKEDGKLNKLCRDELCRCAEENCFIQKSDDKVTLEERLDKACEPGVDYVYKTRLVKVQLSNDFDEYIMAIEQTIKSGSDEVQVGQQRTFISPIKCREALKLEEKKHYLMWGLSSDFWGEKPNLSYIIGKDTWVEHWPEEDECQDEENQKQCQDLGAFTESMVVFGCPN

[8] = target: recombinant Ancylostoma caninum neutrophil adhesion inhibitor (NIF) (Ancylostoma caninum); experiment: competition: fluid-phase r11bA against biotinylated rNIF binding to human neutrophils, FACS
[9] = target: recombinant Ancylostoma caninum neutrophil adhesion inhibitor (NIF) (Ancylostoma caninum); experiment: competition: fluid-phase r11bA against biotinylated rNIF binding to immobilized r11bA, plate assay

Substance | t1/2 of association [1] [h] | t1/2 of dissociation [2] [h] | Kd [3] [µM] | fold increase in NIF binding to activated vs resting cells [4] [fold] | IC50 [5] [µM] | concentration for complete inhibition [5] [mg/mL] | Kd [6] [µM] | IC50 [7] [µM] | IC50 [8] [µM] | IC50 [9] [µM]
recombinant Ancylostoma caninum neutrophil adhesion inhibitor (NIF) (ligand) | 0.25 | 7.6 | 0.001 | 12 | 0.005 | 3 | 0.00035 to 0.0013 | – | – | –
recombinant CD11b A domain (from UniProt P11215 144-337) (receptor) | – | – | – | – | – | – | – | 1000 | 0.001 | 0.001
